# Experimental data from article PMC3594281.
# Target: T1, Hyper-IL-6 (sIL-6R/IL-6 fusion) (UniProt P08887 20-323+P05231:30-212, internal_change)
# Assay: filter binding
row,Binder,Kd [nM]
1,GGGAGGGAGGGAGGGA (structured_DNA) [AID-1+A],691 ± 271

# Target: T1, Hyper-IL-6 (sIL-6R/IL-6 fusion)
# Assay: filter binding
# Remark: another data set of the same source
Binder,binding result,Kd [nM]
GTTTGTGTTTGTGTGT (ssDNA) [NK3],no binding,
GGGTGGGTGGGTGGGT (structured_DNA) [AID-1 (T30923)],,209 ± 96
GGGTGGGTGGGTGGGA (structured_DNA) [AID-1-T16A],,693 ± 392
GGGGAGGCUGUGGUGAGGG (structured_RNA) [AIR-3A],,82 ± 9
GGGUGUGUGGGUGGGU (structured_RNA) [rAID-1-G6U],no binding,
GGGUGGGUGGGUGGG (structured_RNA) [rAID-1-U],,199 ± 65
GGGTGGGTGGGTGGG (structured_DNA) [AID-1-T],,127 ± 79
GGGTGGGAGGGTGGGT (structured_DNA) [AID-1-T8A],,316 ± 59
GGGAGGGTGGGTGGGT (structured_DNA) [AID-1-T4A],,420 ± 160
GGGGAGGCUGUGGUGAUUG (structured_RNA) [AIR-3A-G17/18U],no binding,
GTGGTGGGTGGGTGGGT (structured_DNA) [T30175],,293 ± 94
GGGTGGGTGGGAGGGT (structured_DNA) [AID-1-T12A],,234 ± 71
GGGUGGGUGGGUGGGU (structured_RNA) [rAID-1],,208 ± 53

# Target: thrombin (UniProt P00734;P00734 328-363;364-622)
# Assay: filter binding
row,Binder,binding result
1,GGGTGGGTGGGTGGGT (structured_DNA) [AID-1 (T30923)],no binding

# Target: IL-6 (human, UniProt P05231 30-212)
# Assay: filter binding
# Chain of IL-6 (P05231 30-212): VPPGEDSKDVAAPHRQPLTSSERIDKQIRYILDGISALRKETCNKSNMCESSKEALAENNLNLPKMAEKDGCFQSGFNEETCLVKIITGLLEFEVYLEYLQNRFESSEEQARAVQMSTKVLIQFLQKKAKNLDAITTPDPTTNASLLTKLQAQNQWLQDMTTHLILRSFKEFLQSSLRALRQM
row,Binder,binding result
1,GGGTGGGTGGGTGGGT (structured_DNA) [AID-1 (T30923)],no binding
2,GTGGTGGGTGGGTGGGT (structured_DNA) [T30175],no binding

# Target: T1, Hyper-IL-6 (sIL-6R/IL-6 fusion)
# Assay: filter binding
# Remark: another data set of the same source
row,Binder,binding result
1,GGGGAGGCUGUGGUGAUGG (structured_RNA) [AIR-3A-G17U],no binding
2,GGGTGGGTGTGTGGGT (structured_DNA) [AID-1-G10T],no binding
3,TGGTGGGTGGGTGGGT (structured_DNA) [AID-1-G1T],no binding
4,GGGTGAGTGGGTGAGT (ssDNA) [AID-1-G6A/G14A],no binding
5,GGGGTGGGGTGGGGTGGGGT (structured_DNA) [d(GGGGT)4],no binding
6,GGGTGAGTGGGTGGGT (structured_DNA) [AID-1-G6A],no binding
7,GGGTGGGTGGGTGTGT (structured_DNA) [AID-1-G14T],no binding
8,GGTTGGGTGGGTGGGT (structured_DNA) [AID-1-G3T],no binding
9,GGTTGGTGTGGTTGG (structured_DNA) [TBA],no binding
10,GTGTGGGTGGGTGGGT (structured_DNA) [AID-1-G2T],no binding
11,GTGTGTGTGTGTGTGT (ssDNA) [PolyGT],no binding
12,GGGTGTGTGGGTGGGT (structured_DNA) [AID-1-G6T],no binding
13,GGTGGTGGTGGT (structured_DNA) [d(GGT)4],no binding

# Target: T1, Hyper-IL-6 (sIL-6R/IL-6 fusion)
# Assay: SPR
row,Binder,Kd [nM]
1,GGGTGGGTGGGTGGGT (structured_DNA) [AID-1 (T30923)],490
